Source: paper PMC11221535

Legend:
Test in all cases: ITC
[1] = target: TobE ^NDD-ACP didomain (Methylorubrum extorquens AM1)
[2] = target: TobE N-terminal docking domain (TobE ^NDD) (Methylorubrum extorquens AM1)
[3] = target: TobC C-terminal docking domain (TobC ^CDD) (Methylorubrum extorquens AM1)

Kd [1] | Kd [2] | stoichiometry N [2] | Kd [3] | stoichiometry N [3] | Substance
5.7 µM | 4 µM | 0.8 |  |  | TobC C-terminal docking domain (TobC ^CDD) (domain or fragment)
 | 769 µM |  |  |  | TobC ^CDD R2271A (domain or fragment)
 |  |  | 3.2 µM | 1 | TobE N-terminal docking domain (TobE ^NDD) (domain or fragment)
